From article PMC7821874 (Science Advances, 2020)
Each block holds one binder with its values, some of them ahead of it.

Columns and labels:
[1] = biological target: the molecule itself; experiment: negative stain electron microscopy
[2] = biological target: T1, wild-type (WT) human CAV1α with a C-terminal 6X-Histidine tag (human), Q03135; experiment: negative stain electron microscopy; details: remark: other sources report otherwise
T1 chain: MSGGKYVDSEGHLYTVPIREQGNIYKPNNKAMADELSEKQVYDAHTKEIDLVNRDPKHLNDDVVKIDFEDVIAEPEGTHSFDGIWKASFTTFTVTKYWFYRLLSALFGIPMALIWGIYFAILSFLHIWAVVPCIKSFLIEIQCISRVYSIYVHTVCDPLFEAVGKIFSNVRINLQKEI

B1: CAV1β with a 6X His-tag at the C terminus (natural protein, human, UniProt Q03135 32-178, looked up)
chain: MADELSEKQVYDAHTKEIDLVNRDPKHLNDDVVKIDFEDVIAEPEGTHSFDGIWKASFTTFTVTKYWFYRLLSALFGIPMALIWGIYFAILSFLHIWAVVPCIKSFLIEIQCISRVYSIYVHTVCDPLFEAVGKIFSNVRINLQKEI
binding result [1]: binds

B2: CAV1β-Venus (natural protein, human, UniProt Q03135 32-178, looked up)
chain: B1 chain
binding result [1]: binds

stoichiometry N [2]: 10
B3: wild-type (WT) human CAV1α with a C-terminal 6X-Histidine tag, Q03135 1-178 (natural protein)
chain: T1 chain
